Experiment: yeast display, Sf9 membrane polyspecificity reagent, FACS + sequencing; frameworks hold sequencing errors
Summary of the method: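 Galactose induction of a Saccharomyces cerevisiae BJ5465 synthetic nanobody display library ran 36–48 hours. The cells were then stained for 1 hour at 4 °C with 10% biotinylated, detergent-solubilized Sf9 membrane reagent, pulled down on streptavidin microbeads and FACS-sorted into low and high (top ~1%) gates on expression and reagent-binding fluorescence. Labels for polyreactivity follow the gate of origin.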

Sequence	polyreactivity (PSR sort gate)
QVQLVESGGGLVQAGGSLRLSCAASGSTLAGYAMGWSRQAPGKERELVAAITRRGGRTYYADSVKGRFTISRDNAKNTVYLQMNSLKPEDTAVYYCAAQRSVKVDYWGQGTQVTVSS	high polyreactivity
QVQLVESGGGLVQAGGSLRLSCAASGSTLAIYAMGWYRQAPGKERELVAAISRSGGTTYYADSVKGRFTISRDNAKNTVYLQMNSLKPEDTAVYYCYPYFWYPDGYTYDYWGQGTQVTVSS	high polyreactivity
QVQLVESGGGLVQAGGSLRLSCAASGSTLAPYVKGWYRQAPGKERELVAVISTRTGRTYYADSVKGRFTISRDNAKNTVYLQMNSLKPEDTAVYYCAAPVYPYQVQTYDYWGQGTQVTVSS	high polyreactivity
QVQLVESGGGLVQAGGSLRLSCAASGSTLAVYAMGWYRQAPGKEREFVAAISWSGVSTYYADSVKGRFTISRDNAKNTVYLQMNSLKPEDTAVYYCAAKRVRALYGGSEGGYWGQGTQVTVSS	low polyreactivity
QVQLVESGGGLVQAGGSLRLSCAASGSTLAVYPMGWYRQAPGKERELVAVIDRGGSTYYADSVKGRFTISRDNAKNTVYLQMNSLKPEDTAVFNCNARRVKGYGYWGHGTQVTVSS	high polyreactivity
QVQLVESGGGLVQAGGSLRLSCAASGSTLAYNAMGWYRQAPGKERELVATINFSGGSTYYADSVKGRFTISRDNSKNTVYLQMNSLKPEDTAVYYCNARGYWQYSPTKFDYWGQGTQVTVSS	low polyreactivity
QVQLVESGGGLVQAGGSLRLSCAASGSTLDDYVMGWYRQAPGKERELVAAISSSGSGTYYADSVKGRFTISRDNAKNTVYLQMNSLKPEDTAVYYCAAAYSYSGYGYYTYDYWGQGTQVTVSS	low polyreactivity
QVQLVESGGGLVQAGGSLRLSCAASGSTLDEYAMGWYRQAPGKEREFVAAISWSDGSTYADSVKGRFTISRDNAKNTVYLQMNSLKPEDTAVYYCNAYAYVSLYYSGEYWGQGTQVTVSS	low polyreactivity
QVQLVESGGGLVQAGGSLRLSCAASGSTLDSNAMGWYRQATGKERELVAAIDWSGGSTYYADSVKGRFTISRDHAKNTVYLQMNSLKPEDTAVYYCAADDSSINYGDFDYWGQGTQVTVSS	low polyreactivity
QVQLVESGGGLVQAGGSLRLSCAASGSTLDVYAMGWYRQAPGKERELVAAISWSVGSTYYAYSVKGRFKISRDNAKNTVYLQINRLKPEDTAVYNCAAEQYEYAYDGYDYWGQGTQVTVSS	high polyreactivity
QVQLVESGGGLVQAGGSLRLSCAASGSTLDYNDMGWYRQAPGKEREFVAAIRSNDGSTYYADSVKGRFTISRDNAKKTVYLQMNSLKPEDTAVYYCNKDVWDGYDWPEFDYLGQGTQVTVSS	low polyreactivity
QVQLVESGGGLVQAGGSLRLSCAASGSTLGRNAMGWYRQAPGKERELVAAISSTGGSTSYADSVKGRFTISRDNAKNTVYLQMNSLKPEDTAVYYCAKRFSPRYYYWGQGTQVTVSS	high polyreactivity
QVQLVESGGGLVQAGGSLRLSCAASGSTLGSYAMGWYRQAPGKERELVAAINTSGGNTYYADSVKGRFTISRDNAKNTVYLQMNSLKPEDTAVYYCNARYYGGGATFGYWGQGTQVTVSS	low polyreactivity
QVQLVESGGGLVQAGGSLRLSCAASGSTLGVNAMGWYRQAPGKEREFVSSITGRVGNTYYADSVKGRFTISRDNAKNTVYLQMNSLKPEDTAVYYCAARVKYTRYQSILDYYYWGQGTQVTVSS	high polyreactivity
QVQLVESGGGLVQAGGSLRLSCAASGSTLGYYAKGWYRQAPGKERELVATITRSGGNTYYADSVKGRFTISRDNAKNTVYLQMNSLKPEDTAVYYCAARRLYGSQRGYWGQGTQLTVSS	high polyreactivity
QVQLVESGGGLVQAGGSLRLSCAASGSTLHSYAMGWYRQAPGKERELVAALSFRGGSTYADSVKGRFTISRDNAKNTVYLQMNSLKPEDTAVYYCATRSTRADWYIVGYDYWGQGTQVTVSS	low polyreactivity
QVQLVESGGGLVQAGGSLRLSCAASGSTLIANAMGWYRQAPGKERELVAGITYRGGDITTYADSVKGRFTISRDTAKNTVYLQMNSLKPEDTAVYYCAARVVWPTWARGGYWGQGTQVTVSS	low polyreactivity

Source: the nanobody polyreactivity screen of Harvey et al. (2022)
